B1: CYPDN5: cytochrome P450 homolog A0A1X0RYU8 from Rhizopus microsporus, codon-optimized (protein, listed as Rhizopus microsporus)
chain: MELTEIAIETYHRALDKLVPILQKRSKRSYIGVAVALVVLERIYSFFRVPKSIRHIPAVPYFAMAKSFLTSEAPSSRHQRIVLPVIEKGNGIYVNKLPLEWTVNVATPTSAKHVLLKSEIYPKSESFLKLLGPQSPAVLFLGGKNVGFVNGDAWRKQRKIMNPAFHRSMPIQTMASVMPDFFSAIDKYGDEGIPISTIMRDFTLDVLGHTAFGFDFKALKGDPDNWTRTYHIINNALFNPTANMLTSLNPILSIISPERRRILEAIKKLNGMLEAMIKQKRQEVQSNAQAHAPENEKDLLTLMLEAQQRGEGLATDEELKHNVSGFFLAGHDTTSETLSFYFYNIAKNKDVQRKLREELNAVLGDKPVDVIPTLEQLKSMEYLNCTIKENLRLNGPADNVLPRVATEDMVVDGTPIPKGTVVNVDIHAIHHDTRYWKDPYKFVPERFLPGGEHDSHSGMTWLPFGNGARQCLGMNFSLAEQRLVIAMTVRKYDIEVPKDSIHYDHPILESSKTKAPASLKLIFRKRY
B2: CYPDN35: cytochrome P450 homolog A0A1X2GSL0 from Hesseltinella vesiculosa, codon-optimized (protein, listed as Hesseltinella vesiculosa)
chain: MLTQYLQFAADRLGQKKTLDQLQAVVTSKQGVVGITTAVALIALANHFRSPKIDRGCPQVEGKGWFGYATEEFRENPGKFLSEWHEKLGPVYGVKIFGHYATVVSGPYVREVFLDDRFSFIAAITKLFDPNLMTDSGHSSEQTAKNAADSIKRFLSPNLKHYTPRVIEHLNLGIEDWCGEVPAEGIEIENAFPFLQHLVARASASVFVGIELAKNEELVDSFQNMVSNISSGLKPKPWLEYFPSLTKLGMYMIGKTNPAVKRHRTQMANALRPEVDRRLKAMASNDTNWDRPDDMLQHILESYPAPEGLDVITYLINWMTQLIFAALHTTSENGKVVLYRLLQHPEVMEELYAEQNEVLAAAGYDESAGPEVFDREMLNKFVKLDSAVREACRLKNEFVGLPHENTTDKTLTLSNGAVILPGEFVYINQFVNHRDPELQAAIDDVHQFKPFRFVGTDHNAAKVSEGFVFFGMGRHACPGRWFAIQEIKTIVSLLLRKYKVEPIDPIVFSNQERDAFPIGPCRIRLTPRKAL
B3: CYPDN4: cytochrome P450 homolog I1CCX6 from Rhizopus delemar, codon-optimized (protein)
chain: MVKSFLKAESPTDRYKRIIHPVASKGNGFYVSKVPFLWAVYVTNPVVAKQVLLKSDIFPKNHAVFHQIGKDSPFTQFLGLDNVALSNGDVWKKQRKVMNPAFHRSLPIKTMASVVNTLFSVIDNSDGPVLITSAMQNFTLDVLGLAIFGFEFKALQGDPDNWTKTYKTVIESLFDPVMNVFATFDTLLTWVYPKRRECSVAISKMNLKFDELAKQKRAEVKSGAYANVPDHDKDLLTLMLEAMEKGEALTSQDELRHNIAVFFLAGHGTTAHTLSFCFYHLAKNKHIQRKLREEIISVLGDEPVDIVPSLEQMKHMKYMNLVIKENLRMNTPADTLFTRDTVEDINLAGHIIPKDTAISIDINAIHHDPKYWHNPEHFIPERFAEGGEQESHEGLTWLPFSNGSRQCIGMNFSLAEQRLVLAMLVRKYEIDIPKDSIHYERILFDRPGNIAPLSLGLTFTKRY
modifications: Rhizopus delemar
B4: CYPDN7: cytochrome P450 homolog I1CBZ0 from Rhizopus delemar, codon-optimized (protein)
chain: MALEGALPLFQKRSKSSYIVAAILLITVKQIYSFFRVPTNLRHLPCVSFFAMAKSLLTCEPPYNRFKRITFPAIQEGNGFYVSKIPTGWTVYVANPVAAKQLLLKSNNFPKSHYGLDTIGEKSTAVQFVGRDNVVLSNGEIWKKQRKIMNPVFHRSMPIKTVASLVPLLFSAIEEANGRIMITPKMKDFTLDALGLTIFDFDFKALQGDPDNWTSIYRLITRSIFDPISYVFCALEPLLVYVYPKRRRSVDAVAKINAKFDQVISKKREELQNGIFSNKPDNEKDLVTLMLEAGMQEDVSITNEELRHNMAVLFLAGHDSTSNTLSFCLYHLAKNKRAQQKLREEIINILGDDDIDIVPSLEELKQMKYMNMVIKETLRLGMPLDLLTPRKTVEDTFVADTFIPKDTVIAVDAGALHRDPRSWKDPDEFVPERFEDDGEQNSHEGLTWVPFSNGTRQCIGMNFSLMEQRLTLTMLLRKYEVDLPKDSIHYDHIIYEQPSYVCPESLELIFTKRY
modifications: Rhizopus delemar
B5: CYPDN31: cytochrome P450 homolog A0A291C3B2 from Absidia caerulea, codon-optimized (protein, listed as Absidia caerulea)
chain: MLTEYIHHFINNFDQKKTMDQLQTMVSSKEGMIGLATAAVLMSGAAVYKSTRIERGCPQVPNQSYFMGSTKEYRNNPAAFIEKWEKELGPVYGAYLFGQYTTVVSGPQVREVFLNDDFDFIAGIRRDFDTNLLSNGGDLRDLPVHKFAGSIKKNLSPKLPFYTSRVIEHLKIGLKEFCGVVPDEGKEFDHVYPLVQHMVAKASASVFVGPELAKNEQLIDSFKNMVLEVGSELAPKPYLEFFPNLMRLRMWFIGKTSQKVKRHRDQLRAALAPQVEYRLKAMKENDSNWDRPNDFLQDILESGDIPAHVDVTDHCCDWMTQIIFAALHTTSENGTLSFYRLLDNPKVLEDLLEEQNQVLEDAGYDSSVGPEVFTREILNKFVKMDSVIRETSRLRNDYIGLPHKNISSKTITLSGGAMIRPGERAYVNAYSNHRDGTIQKVTDNLKSFEPYRFVNQDRNSTKIGEDFIFFGMGKHACPGRWFAIQEIKTIIAMMIRSYQLSALGPVTFPTDDYSRIPMGRFKIVPRK
B6: CYPDN34: cytochrome P450 homolog A0A068SBP8 from Lichtheimia corymbifera, codon-optimized (protein, listed as Lichtheimia corymbifera)
chain: MYKAFLDNGIVSSIISTLDNKDISVFLNDPNHAKTRSVALVSFCTVIAAYALSRSRSHSKDKDTPMVPYTWPLIGSSREYRKDPEAFIKKWSSELGDVYKVHLFGRIQTVVSGKHVYCLQKDFDFQQGMSKTFDIWLLLDAPLGGRFTLDKIRHATIKFTRTKMLTNTPCVVKQLIAAEHEMIGDAQTPSEIANLYPLMEHLVAIASATNFVGPGLTKDKDLVETYKHLAVDVGSELGDGNEFLEAFPWISRLRMWYLGKYGNSVDKHRKRLLRAMKPIIDERLAAAENGIENPQDFIQDIIEESEITSGDPDKYILAVRWILVMIASAGHTTTENTTIILYRILQHPEVIDELLEEQRQVLEKHHGPDVKDNEDLATLFTGEVIKDLVKLDSVCRETMRLRSFYIDLPHTYVGKSPLALTNTCTIKPGEDVLLNMWLNHNRTAMQYDGLGDYNEFKPFRFVGLDRSSTKLGGDFLLFGLGTHACPGRWFAMHQTKTILSMLLRRYQITPQETIVFPIGNRSHVPSGKVTFQKRQ
B7: CYPDN6: cytochrome P450 homolog A0A0B7NKC0 from Parasitella parasitica, codon-optimized (protein, listed as Parasitella parasitica)
chain: MAVLCLVLERIYASYAVPPSYLRHYPKVSLFDMLKSFYIKESVASRNKRLIAPLTNAGHGFYVCRIPLNWTIYVTDPLAAKTLLLKSENFPKNKAIFTALGDSSPVIKFMGKENVAMSNGEEWKKQRKIMNPAFHRSQPVKTFGNVMPDLFALIDQDPERVFITPKMKSFALDALGLSAFGFDFQSLKGDPEGWTRKYNVVISTLFNPFVNIFASLDFLVKYISPERRRVIKATDEFNSMLGELADKRRQEILDGEKKNIPENEKDLLTLMIEADIRDNIKTTTTELRHNMAIFFLAGHDSTANTLSLCLYNLAKHKHVQKKARQEVLAILGDEPLDVIPTAEDLKKLDYVNMVIKENLRRNGPADNLMSRDTQQDMNLNGTIIPKGSKVSVNVAAIHLNPKIWHDPENFIPERFEQGGEFEQHDGFTWIPFSNGSRQCLGLNFSLTEQRVVLCMILKRYEIDIPKDSIHYNEIVFDGAFTFAPQSLELSFKRRY

What follows are molecules tested on thebaine (assay: Demethylation of thebaine by new cytochrome P450 fungal and plant homologs co-expressed with CPRs in S. cerevisiae). Settings: 0.5 mM thebaine, SC or DELFT media pH 7, 72 h, 30° C.; co-expressed with Cel_CPR_co, Tp_CPR_5866, Tp_CPR_DN10898 or POR1.
With B1 the Northebaine production was “+”.
With B2 the Northebaine production was “+”.
For B3, the Northebaine production was “−”.
B4 was tested, and the Northebaine production was “+”.
In the case of B5, the Northebaine production is reported as “+”.
In the case of B6, the Northebaine production is reported as “+”.
In the case of B7, the Northebaine production is reported as “+”.

From patent US11781164B2, “Demethylation of reticuline and derivatives thereof with fungal cytochrome P450” (priority 2017, dated 2023)
